Measurements as given in US12064464B2, “Plantaricin NC8 alpha beta markedly enhances the effects of antibiotics” (priority 2018, dated 2024).
Entries after “also recorded” stand apart in the source; their conditions may differ. Read-outs that look alike come from different tables or passages of the source.

Experiments:
[1] = Fluorescence leakage assay (CF release from liposomes); settings: after 2 min; both the L-form and D-form
Experimental: Liposomes were prepared by dry film formation, hydration and finally extrusion through a polycarbonate membrane to form monodisperse large unilamellar vesicles. […] A dry lipid film was formed by evaporation of the chloroform by nitrogen flow and overnight lyophilization. The film was hydrated with either 10 mM phosphate buffer (PB) pH 7 or 10 mM phosphate buffer saline (PBS) pH 7, and the solution was vortexed for 1 min and put on a shaker for 1 h before extruded 21 times through a 100 nm pore-sized polycarbonate membrane. For fluorescence leakage assay the lipid film was hydrated with buffer (PBS) containing self-quenching concentration (50 mM) of 5(6)-carboxyfluorescein (CF) (Sigma Aldrich) and liposomes were prepared as described above. Removal of unencapsulated CF was done by gel filtration using a PD-25 column (GE Healthcare, Uppsala, Sweden) and liposomes with encapsulated CF were eluted with PBS. Leakage of the liposome encapsulated fluorophore CF due to additions of the bacteriocins was recorded using a fluorescence plate reader (Infinite 200, Tecan, Austria) where λex=485 nm and λem=520 nm. CF was encapsulated at self-quenching concentration, and CF release results in an increased fluorescence signal. […] In order to estimate the maximum release from each sample a final addition of 0.5% Triton X-100 was made at the end of all measurements and the total amount of CF (100% release) was estimated after 15 min incubation. The CF release is presented as percentage release for each time interval (measurements taken every minute). The percentage CF release is calculated as 100×(F−F0)/(FT−F0) where F0 is the initial fluorescence intensity of CF before peptide addition, F is the fluorescence intensity of CF at time point t and FT is the maximum fluorescence after the addition of Triton X-100.

S. epidermidis = assay: Aggregation and ATP release; assay type: cell-based, Staphylococcus epidermidis
Experimental: Aggregation and extracellular release of ATP were used to study the effects of PLNC8 αβ on the bacteria. ATP was registered using a luciferin/luciferase bioluminescence assay (Sigma, St. Louis, Mo, USA) in bacterial suspensions (2.5×10^8 CFU/ml). The bacteria were exposed to different concentrations of PLNC8 αβ, and real-time changes in light transmission and bioluminescence were recorded in a Chronolog lumi-aggregometer (Chrono-Log, Haverton, PA, USA) for 30 min. The levels of ATP were calculated based on the bioluminescence signals recorded in response to known concentrations of ATP.

Enterococcus faecium = assay: Broth microdilution MIC/MBC; assay type: cell-based; settings: for MBC / MIC: peptide alone
Excerpt: (§1) Staphylococcus aureus CCUG 35601 (MRSA, Culture Collection, University of Gothenburg) and Staphylococcus aureus ATCC 29213 (MSSA, ATCC, Manassas, VA). Staphylococcus epidermidis ATCC 12228 (ATCC, Manassas, VA), RP62A, N15 and 10 clinical isolates of Staphylococcus epidermidis that have previously been characterized. Isolated Escherichia coli, Enterococcus faecium (including VRE), Pseudomonas aeruginosa, Klebsiella pneumoniae, Enterobacter spp and Acinetobacter baumannii were obtained from Orebro University hospital. Isolated Streptococcus mutans, Streptococcus constellatus and Streptococcus anginosus were obtained from Malmo University. The bacteria were grown on Luria-Bertani (LB) agar plates, supplemented with 5% defibrinated horse blood, and incubated at 37° C. overnight. Single colonies were inoculated into 5 ml of LB broth and incubated on a shaker (300 rpm) at 37° C. overnight. The bacterial concentration was determined by viable count and adjusted to correlate with approximately 10^9 CFU/ml.
(§2) The broth microdilution method was used to determine minimal inhibitory concentration (MIC) and minimal bactericidal concentration (MBC). Two-fold serial dilutions of the peptides were used and the final concentrations ranged from 0.097-50 μM. […] The effect of bacteriocin-antibiotic combinations was accomplished by using the same concentration series of antibiotics with a constant concentration of PLNC8 αβ (3.1 μM) in all the wells. […] All experiments were repeated at least three times.

Escherichia coli = assay: Broth microdilution MIC/MBC; assay type: cell-based; settings: for MBC / MIC: peptide alone
Excerpt: as §1, §2

Pseudomonas aeruginosa = assay: Broth microdilution MIC/MBC; assay type: cell-based; settings: for MBC / MIC: P. aeruginosa, peptide alone
Excerpt: as §1, §2

[2] = tested on: S. epidermidis ATCC 12228; assay: Sytox Green uptake (membrane permeabilization); assay type: cell-based, Staphylococcus epidermidis; settings: 5 μM
Experimental: The fluorescent dye Sytox® Green, which can only cross damaged membranes and fluoresce upon binding to nucleic acids, was used to study the antimicrobial activity of PLNC8 αβ on S. epidermidis, S. aureus (MSSA, MRSA) and Streptococcus spp. The bacteria were washed and resuspended in Krebs-Ringer Glucose buffer (KRG) (120 mM NaCl, 4.9 mM KCl, 1.2 mM MgSO4, 1.7 mM KH2PO4, 8.3 mM Na2HPO4, and 10 mM glucose, pH 7.3) and incubated in the presence or absence of different combinations of PLNC8 αβ in 96-well microtiter plates for 2 min. Images were captured with Olympus BX41 at 40× magnification.

[3] = references 1, 2; cited from earlier work
[4] = tested on: wounds infected with S. aureus; assay: Porcine wound model; assay type: in vivo, pig; settings: PLNC8αβ 50 μM, every other day, 7 days
Excerpt: Three wounds were created per condition with the following conditions: control (PBS), […]/gentamicin and […]8 αβ. […] The pig was returned to the pen and monitored during recovery from anesthesia. […] This procedure was repeated every other day for seven days (a total of four doses of treatment of the infected wounds).

[5] = Vancomycin resistant E. faecium (VRE)
[6] = ESBL-producing E. coli, first isolate
[7] = ESBL-producing E. coli, second isolate
[8] = Non-ESBL E. coli, first isolate
[9] = Non-ESBL E. coli, second isolate

B1: PLNC8 αβ: two-peptide class IIb bacteriocin of L. plantarum NC8: PLNC8 α (SEQ ID NO 1) with PLNC8 β (SEQ ID NO 2) (peptide)
alpha: DLTTKLWSSWGYYLGKKARWNLKHPYVQF
beta: SVPTSVYTLGIKILWSAYKHRKTIEKSFNKGFYH
modifications: Lactobacillus plantarum NC8
lysis of liposomes [1]: complete lysis of liposomes after 2 min | release of ATP (bacterial lysis) (S. epidermidis): dose-dependent release of ATP | aggregation of bacteria (S. epidermidis; low concentrations): bacteria aggregates when exposed to low concentrations | effect of peptide alone on Enterococcus faecium (Enterococcus faecium): permeabilized and killed | effect of sub-MIC peptide on antibiotics (Enterococcus faecium): significantly enhanced the effects of different antibiotics | MBC (Enterococcus faecium; E. faecium, first isolate): 6.25 µM | MIC (Enterococcus faecium; E. faecium, first isolate): 6.25 µM | MBC (Enterococcus faecium; E. faecium, second isolate): 6.25 µM | MIC (Enterococcus faecium; E. faecium, second isolate): 3.1 µM | MBC (Enterococcus faecium; [5]): 25 µM | MIC (Enterococcus faecium; [5]): 3.1 µM | effect of peptide alone on Enterococcus faecium (Enterococcus faecium; listed as PLNC8αβ): both inhibitory and bactericidal | effect of peptide alone on Escherichia coli (Escherichia coli): permeabilized and killed | effect of sub-MIC peptide on antibiotics (Escherichia coli): significantly enhanced the effects of different antibiotics | MBC (Escherichia coli; [6]): >50 µM | MIC (Escherichia coli; [6]): >50 µM | MBC (Escherichia coli; [7]): >50 µM | MIC (Escherichia coli; [7]): >50 µM | MBC (Escherichia coli; [8]): >50 µM | MIC (Escherichia coli; [8]): >50 µM | MBC (Escherichia coli; [9]): >50 µM | MIC (Escherichia coli; [9]): >50 µM | effect of peptide alone on Escherichia coli (Escherichia coli; listed as PLNC8αβ): did not affect the growth; also recorded: does not affect the growth | effect of peptide alone on Pseudomonas aeruginosa (Pseudomonas aeruginosa): permeabilized and killed | effect of sub-MIC peptide on antibiotics (Pseudomonas aeruginosa): enhanced the effects of different antibiotics | MBC (Pseudomonas aeruginosa; first isolate): >50 µM | MIC (Pseudomonas aeruginosa; first isolate): >50 µM | MBC (Pseudomonas aeruginosa; second isolate): >50 µM | MIC (Pseudomonas aeruginosa; second isolate): >50 µM | effect of peptide alone on Pseudomonas aeruginosa (Pseudomonas aeruginosa; listed as PLNC8αβ): did not affect the growth; also recorded: does not affect the growth | perturbation of the plasma membrane of S. epidermidis [2]: equally rapid (2 min) | cell proliferation [3]: stimulates cell proliferation | infection and wound healing in vivo [4]: inhibited infection and promoted wound healing in vivo
